{"source": "patent US20240327815A1", "about": "(Zymeworks, published 2024)", "binders": {"B1": {"name": "Etesevimab (antibody, V domains shown)", "VH": "EVQLVESGGGLVQPGGSLRLSCAASGFTVSSNYMSWVRQAPGKGLEWVSVIYSGGSTFYADSVKGRFTISRDNSMNTLFLQMNSLRAEDTAVYYCARVLPMYGDYLDYWGQGTLVTVSS", "VL": "not shown"}, "B2": {"name": "REGN10987 (Imdevimab) (antibody, V domains shown)", "VH": "QVQLVESGGGVVQPGRSLRLSCAASGFTFSNYAMYWVRQAPGKGLEWVAVISYDGSNKYYADSVKGRFTISRDNSKNTLYLQMNSLRTEDTAVYYCASGSDYGDYLLVYWGQGTLVTVSS", "VL": "QSALTQPASVSGSPGQSITISCTGTSSDVGGYNYVSWYQQHPGKAPKLMIYDVSKRPSGVSNRFSGSKSGNTASLTISGLQSEDEADYYCNSLTSISTWVFGGGTKLTVLR"}, "B3": {"name": "Bamlanivimab (antibody, V domains shown)", "VH": "QVQLVQSGAEVKKPGSSVKVSCKASGGTFSNYAISWVRQAPGQGLEWMGRIIPILGIANYAQKFQGRVTITADKSTSTAYMELSSLRSEDTAVYYCARGYYEARHYYYYYAMDVWGQGTAVTVSS", "VL": "not shown"}, "B4": {"name": "REGN10933 (Casirivimab) (antibody, V domains shown)", "VH": "QVQLVESGGGLVKPGGSLRLSCAASGFTFSDYYMSWIRQAPGKGLEWVSYITYSGSTIYYADSVKGRFTISRDNAKSSLYLQMNSLRAEDTAVYYCARDRGTTMVPFDYWGQGTLVTVSS", "VL": "DIQMTQSPSSLSASVGDRVTITCQASQDITNYLNWYQQKPGKAPKLLIYAASNLETGVPSRFSGSGSGTDFTFTISGLQPEDIATYYCQQYDNLPLTFGGGTKVEIKR"}}, "key": {"[1]": {"biological_target": "WT SARS-CoV-2 spike protein, plate-coated (MSD V-Plex) (SARS-CoV-2, UniProt P0DTC2 14-1208)", "assay": "MSD competition vs labelled ACE2"}, "[2]": {"biological_target": "T1, full length wild type SARS-CoV-2 spike glycoprotein on pseudotyped lentivirus (SARS-CoV-2, UniProt P0DTC2 14-1273)", "assay": "cell-based or functional assay"}, "[3]": {"biological_target": "T1, full length wild type SARS-CoV-2 spike …", "assay": "cell-based or functional assay", "remark": "listed apart in the source"}}}
{"binder": "B1", "values": [{"measurement": "IC50", "setting": "[1]", "value": 0.51, "unit": "nM"}]}
{"binder": "B2", "values": [{"measurement": "%-inhibition EC50 (M), pseudovirus neutralization", "setting": "[2]", "value": "2.9e-09", "unit": "M"}, {"measurement": "Bmax (% inhibition)", "setting": "[2]", "value": 116, "unit": "%"}, {"measurement": "RLU EC50 (M), pseudovirus neutralization", "setting": "[2]", "value": "2.9e-09", "unit": "M"}, {"measurement": "Pseudovirus Neutralization (IC50, nM)", "setting": "[3]", "value": 4.76, "unit": "nM"}]}
{"binder": "B3", "values": [{"measurement": "Bmax (% inhibition)", "setting": "[2]", "value": 100, "unit": "%"}, {"measurement": "Pseudovirus Neutralization (IC50, nM)", "setting": "[3]", "value": 2.29, "unit": "nM"}]}
{"binder": "B4", "values": [{"measurement": "%-inhibition EC50 (M), pseudovirus neutralization", "setting": "[2]", "value": "1.1e-10", "unit": "M"}, {"measurement": "RLU EC50 (M), pseudovirus neutralization", "setting": "[2]", "value": "1e-10", "unit": "M"}, {"measurement": "Pseudovirus Neutralization (IC50, nM)", "setting": "[3]", "value": 0.05, "unit": "nM"}]}
